Reference: publication PMC7458484

Target: HBV core protein Cp185 (full-length) (hepatitis B virus (Human); compared to …, UniProt Q67855 1-185)
Assay: time-resolved SAXS (stopped flow), SEC capsid assembly; after mixing ~1 RNA per 6.5 Cp185 monomers; RNA in assembly buffer; RNA added to dimers in disassembly buffer immediately triggered capsid formation; Cp185 in 1.5 M GuHCl, 0.5 M LiCl, 50 mM HEPES pH 7.5, 2 mM DTT mixed 1:1 with assembly buffer 250 mM NaCl, 50 mM HEPES pH 7.5, 2 mM DTT; RNA 0.075 mg/mL final

## GGGUUUGUUUAAAGACUGGGAGGAGUUGGGGGAGGAGCCC (structured_RNA) [PS1 RNA oligo (40 nt, RNA40)]
  binding result: binds
